Data on three molecules can be found in PMC3565967, “Biochemical Similarities and Differences between the Catalytic [4Fe-4S] Cluster Containing Fumarases FumA and FumB from Escherichia coli” (PLoS ONE, 2013).

One series has as its target FumA (Escherichia coli, UniProt P0AC33). Description: fumarate depletion at […] nm, Michaelis-Menten fit. Format: biochemical. To be noted: anaerobic, 100 mM EPPS pH 8, 5% glycerol, 0.5 mM DTT, 37 °C; regenerated [4Fe-4S] enzyme.
The target of the next series is T1, FumB (Escherichia coli, UniProt P14407).
T1 construct: full length, N-terminal His-tag (pET15b, gene from plasmid pGS56), expressed in E. coli BL21(DE3); [4Fe-4S] cluster regenerated with Fe2+ and L-cysteine; homodimer circa 120 kDa
Description: fumarate depletion at […] nm, Michaelis-Menten fit. Format: biochemical. Particulars: anaerobic, 100 mM EPPS pH 8, 5% glycerol, 0.5 mM DTT, 37 °C; regenerated [4Fe-4S] enzyme.

Series [1] deals with the molecule itself. Description: SEC; Superdex 200, to estimate the molecular weight of the native enzyme; data not shown.
Substrate in series [2]: O=C(O)C[C@H](O)C(=O)O
In words: purified protein. To be noted: anaerobic, 100 mM EPPS pH 8, 5% glycerol, 0.5 mM DTT, 37 °C, regenerated [4Fe-4S] enzyme.

Substrate in series [3]: O=C(O)C(O)C(O)C(=O)O
In words: purified protein. To be noted: anaerobic, 100 mM EPPS pH 8, 5% glycerol, 0.5 mM DTT, 100 µM NADH, 1 mM MgCl2, 37 °C, regenerated [4Fe-4S] enzyme.

A word on the Km: it is the concentration of substrate that gives half-maximal velocity. In the case of `O=C(O)/C=C/C(=O)O` [fumarate], the results for the Km at FumA and at FumB were 460 ± 80 µM and 320 ± 40 µM, respectively.

B1: Fumarase B (FumB) from Escherichia coli (enzyme, E. coli, UniProt P14407 1-548, looked up)
chain: MSNKPFIYQAPFPMGKDNTEYYLLTSDYVSVADFDGETILKVEPEALTLLAQQAFHDASFMLRPAHQKQVAAILHDPEASENDKYVALQFLRNSEIAAKGVLPTCQDTGTAIIVGKKGQRVWTGGGDEETLSKGVYNTYIEDNLRYSQNAALDMYKEVNTGTNLPAQIDLYAVDGDEYKFLCVAKGGGSANKTYLYQETKALLTPGKLKNFLVEKMRTLGTAACPPYHIAFVIGGTSAETNLKTVKLASAHYYDELPTEGNEHGQAFRDVQLEQELLEEAQKLGLGAQFGGKYFAHDIRVIRLPRHGASCPVGMGVSCSADRNIKAKINREGIWIEKLEHNPGQYIPQELRQAGEGEAVKVDLNRPMKEILAQLSQYPVSTRLSLTGTIIVGRDIAHAKLKELIDAGKELPQYIKDHPIYYAGPAKTPAGYPSGSLGPTTAGRMDSYVDLLQSHGGSMIMLAKGNRSQQVTDACHKHGGFYLGSIGGPAAVLAQQSIKHLECVAYPELGMEAIWKIEVEDFPAFILVDDKGNDFFQQIVNKQCANCTK
notes: FumB, class I [4Fe-4S] fumarase of E. coli; the gene from plasmid pGS56 was cloned into pET15b; After nickel column purification the enzyme held [3Fe-4S] clusters in only 10-25% of the protein, the rest being apoprotein; also called fumarate hydratase class I, anaerobic; source: E. coli BL21(DE3), pET15b-FumB, purified (nickel sepharose column)
As usually defined, the stoichiometry N is a count of units in the complex or per binding partner. Take B1: the “stoichiometry N” value in series [1] is 2. In addition, in the series “purified protein [2]”, the Km was 300 ± 70 µM, the Vmax entry is “(4.9±0.3)·10^2 umol product/minute/mg enzyme” and the kcat/Km result is “(1.6±0.4)⋅10^6 s^-1 M^-1”. For the same molecule, in “purified protein [3]”, the Km worked out at 800 ± 100 µM, the Vmax is reported as 9.2±0.4 umol product/minute/mg enzyme and the kcat/Km result is “(12±2)⋅10^3 s^-1 M^-1”.

B2: FumA (Escherichia coli K-12) (protein)
chain: SNKPFHYQAPFPLKKDDTEYYLLTSEHVSVSEFEGQEILKVAPEALTLLARQAFHDASFMLRPAHQQQVADILRDPEASENDKYVALQFLRNSDIAAKGVLPTCQDTGTAIIVGKKGQRVWTGGGDEAALARGVYNTYIEDNLRYSQNAPLDMYKEVNTGTNLPAQIDLYAVDGDEYKFLCIAKGGGSANKTYLYQETKALLTPGKLKNYLVEKMRTLGTAACPPYHIAFVIGGTSAETNLKTVKLASAKYYDELPTEGNEHGQAFRDVELEKELLIEAQNLGLGAQFGGKYFAHDIRVIRLPRHGASCPVGMGVSCSADRNIKAKINRQGIWIEKLEHNPGKYIPEELRKAGEGEAVRVDLNRPMKEILAQLSQYPVSTRLSLNGTIIVGRDIAHAKLKERMDNGEGLPQYIKDHPIYYAGPAKTPEGYASGSLGPTTAGRMDSYVDQLQAQGGSMIMLAKGNRSQQVTDACKKHGGFYLGSIGGPAAVLAQGSIKSLECVEYPELGMEAIWKIEVEDFPAFILVDDKGNDFFQQIQLTQCTRCVK
As for B2, in “purified protein [2]”, the Km was 700 ± 100 µM, the Vmax entry is listed as “(7.2±0.4)·10^2 umol product/minute/mg enzyme” and the kcat/Km result is “(1.0±0.2)⋅10^6 s^-1 M^-1”. Also, in the series “purified protein [3]”, the Michaelis constant (Km) worked out at 800 ± 300 µM, the Vmax is 2.3±0.3 umol product/minute/mg enzyme and the kcat/Km entry is recorded as “(3±1)⋅10^3 s^-1 M^-1”.
